Source: patent US20090298772A1 (UNIVERSITY OF CHICAGO, published 2009)

T1: menin (endogenous, 293 cell lysate) (UniProt O00255 1-610)
T1 construct: Endogenous protein of transfected 293 cells (a human cell line); Co-immunoprecipitated with FLAG-MLL 1-330; also called endogenous menin; product of the MEN1 tumor suppressor gene
T1 sequence (looked up): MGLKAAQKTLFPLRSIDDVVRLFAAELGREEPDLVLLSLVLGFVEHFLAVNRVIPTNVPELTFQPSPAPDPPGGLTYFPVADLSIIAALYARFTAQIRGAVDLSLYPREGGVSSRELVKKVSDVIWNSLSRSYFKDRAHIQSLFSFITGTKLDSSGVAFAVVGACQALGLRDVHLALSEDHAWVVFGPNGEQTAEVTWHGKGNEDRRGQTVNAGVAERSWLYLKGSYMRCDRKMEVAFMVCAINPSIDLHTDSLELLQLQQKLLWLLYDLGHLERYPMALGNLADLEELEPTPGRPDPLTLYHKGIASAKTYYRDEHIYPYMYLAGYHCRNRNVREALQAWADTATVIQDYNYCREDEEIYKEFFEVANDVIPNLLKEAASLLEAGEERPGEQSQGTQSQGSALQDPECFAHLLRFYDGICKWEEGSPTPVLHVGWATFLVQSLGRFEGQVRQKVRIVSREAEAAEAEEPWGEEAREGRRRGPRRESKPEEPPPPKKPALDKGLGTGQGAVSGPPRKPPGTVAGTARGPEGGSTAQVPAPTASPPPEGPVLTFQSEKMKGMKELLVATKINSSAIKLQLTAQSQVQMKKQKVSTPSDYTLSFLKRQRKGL

B1: MLL 5-14 peptide (peptide)
peptide: CRWRFPARPG
notes: Synthetic peptide; also called MLL peptide 5-14

Biological target: T1, menin (endogenous, 293 cell lysate)
Assay: competition with FLAG-MLL 1-330 for endogenous menin, co-IP / Western blot (FIG. 1); binding to menin shown only by blocking
Text: Cell lysates were immunoprecipitated with anti-FLAG antibody (Sigma), separated by SDS-PAGE and blotted with an anti-menin antibody (Bethyl Laboratories Inc. or Santa-Cruz).

| Binder | binding result |
| --- | --- |
| CRWRFPARPGTTGG (Synthetic peptide) [MLL peptide 5-18] | binds |
| HSCRWRFPARPG (Synthetic peptide) [MLL peptide 3-14] | binds |
| MAHSCRWRFPARPG (Synthetic peptide) [MLL peptide 1-14] | binds |
| HSCRWRFPARPGTTGG (Synthetic peptide) [MLL peptide 3-18] | binds |
| MAHSCRWRFPARPGTTGGGGGGGRRGLGGG (Synthetic peptide) [MLL peptide 1-30] | binds |
| B1 | binds |
| MAHSCRWRFPARPGTTGG (Synthetic peptide) [MLL peptide 1-18] | binds |
| MAHSCRWRFPARPGTTGGGGGG (Synthetic peptide) [MLL peptide 1-22] | binds |
| SCRWRFPARPG (Synthetic peptide) [MLL peptide 4-14] | binds |
| MAHSCRWRFPARP (Synthetic peptide) [MLL peptide 1-13] | binds |
| MAHSCRWRFPARPGTTGGGGGGGRRG (Synthetic peptide) [MLL peptide 1-26] | binds |
| SCRWRFPARPGTTGG (Synthetic peptide) [MLL peptide 4-18] | binds |
| AHSCRWRFPARPGTTGG (Synthetic peptide) [MLL peptide 2-18] | binds |
| AHSCRWRFPARPG (Synthetic peptide) [MLL peptide 2-14] | binds |
